Reference: patent US20250092426, “CAS ENDONUCLEASES AND RELATED METHODS” (Flagship Pioneering Innovations VII, LLC, published 2025)

Target: T1, CasEnd-5 (synthetic construct)
T1 chain: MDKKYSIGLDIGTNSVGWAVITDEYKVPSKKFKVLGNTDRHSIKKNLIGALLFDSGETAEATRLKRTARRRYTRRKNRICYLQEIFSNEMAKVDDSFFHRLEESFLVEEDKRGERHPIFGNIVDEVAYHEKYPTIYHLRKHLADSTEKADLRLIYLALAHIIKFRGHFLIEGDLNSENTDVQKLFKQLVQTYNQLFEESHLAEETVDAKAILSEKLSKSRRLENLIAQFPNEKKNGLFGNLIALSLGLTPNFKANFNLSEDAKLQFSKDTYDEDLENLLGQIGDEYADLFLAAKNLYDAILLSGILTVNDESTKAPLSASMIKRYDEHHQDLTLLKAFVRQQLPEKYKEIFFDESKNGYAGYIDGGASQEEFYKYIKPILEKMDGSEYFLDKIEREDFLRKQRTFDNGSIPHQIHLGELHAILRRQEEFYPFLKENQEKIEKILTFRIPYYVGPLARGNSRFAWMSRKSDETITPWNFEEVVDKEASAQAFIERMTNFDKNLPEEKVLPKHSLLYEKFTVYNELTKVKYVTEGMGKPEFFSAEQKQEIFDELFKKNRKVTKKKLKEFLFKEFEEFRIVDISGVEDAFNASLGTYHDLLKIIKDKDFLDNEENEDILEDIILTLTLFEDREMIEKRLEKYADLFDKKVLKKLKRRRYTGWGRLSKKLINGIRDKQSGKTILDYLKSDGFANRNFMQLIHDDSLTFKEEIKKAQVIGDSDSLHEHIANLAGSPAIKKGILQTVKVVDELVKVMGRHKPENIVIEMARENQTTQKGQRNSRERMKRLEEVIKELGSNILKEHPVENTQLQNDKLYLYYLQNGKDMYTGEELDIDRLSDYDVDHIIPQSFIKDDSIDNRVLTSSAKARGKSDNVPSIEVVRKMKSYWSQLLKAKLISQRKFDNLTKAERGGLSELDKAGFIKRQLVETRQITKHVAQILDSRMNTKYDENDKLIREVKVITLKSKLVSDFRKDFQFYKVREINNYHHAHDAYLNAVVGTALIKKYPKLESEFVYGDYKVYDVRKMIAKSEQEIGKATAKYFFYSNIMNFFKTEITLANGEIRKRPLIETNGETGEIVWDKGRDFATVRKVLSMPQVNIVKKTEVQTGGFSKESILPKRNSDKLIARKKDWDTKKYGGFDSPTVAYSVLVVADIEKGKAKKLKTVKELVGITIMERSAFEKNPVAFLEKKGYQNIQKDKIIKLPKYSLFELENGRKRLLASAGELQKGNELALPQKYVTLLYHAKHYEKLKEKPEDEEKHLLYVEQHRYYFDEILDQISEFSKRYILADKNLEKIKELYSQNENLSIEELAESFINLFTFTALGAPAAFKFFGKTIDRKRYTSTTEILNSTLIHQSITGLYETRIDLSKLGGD
Experiment: cell_activity; +++; HEK293T; PAM not stated
Procedure, shortened: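 Editing activity was scored as the fraction of GFP+ cells on day 4 by flow cytometry. BFP-expressing HEK293T cells (250,000) received by nucleofection 200 ng plasmid for the RT-Cas fusion protein and 200 ng template RNA plasmid designed to convert BFP to GFP.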

B1: BFP-to-GFP template RNA ; BFP reporter protospacer (ssRNA ; dsDNA)
RNA: GCCGAAGCACUGCACGCCGUGUUUUAGAGCUAGAAAUAGCAAGUUAAAAUAAGGCUAGUCCGUUAUCAACUUGAAAAAGUGGCACCGAGUCGGUGCACCCUGACGUACGGCGUGCAGUGCUU
DNA 1: GCCGAAGCACTGCACGCCGT
DNA 2: ACGGCGTGCAGTGCTTCGGC
- activity: ≥ 100 % of reference
